Laboratory results: patent US20160257957

Tests used:
[1] = target: T1, Arc C-terminal protein (132-396 a.a.), Q63053
T1 chain: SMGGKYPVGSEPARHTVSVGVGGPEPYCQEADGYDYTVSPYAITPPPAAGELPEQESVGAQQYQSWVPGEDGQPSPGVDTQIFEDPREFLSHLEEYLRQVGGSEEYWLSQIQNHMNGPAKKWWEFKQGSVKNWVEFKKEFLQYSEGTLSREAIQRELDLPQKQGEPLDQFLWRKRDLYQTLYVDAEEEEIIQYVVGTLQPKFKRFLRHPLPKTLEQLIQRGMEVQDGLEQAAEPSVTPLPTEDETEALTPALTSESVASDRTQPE

[2] = target: T2, HHR23A (recombinant, wild type), P54725
T2 chain: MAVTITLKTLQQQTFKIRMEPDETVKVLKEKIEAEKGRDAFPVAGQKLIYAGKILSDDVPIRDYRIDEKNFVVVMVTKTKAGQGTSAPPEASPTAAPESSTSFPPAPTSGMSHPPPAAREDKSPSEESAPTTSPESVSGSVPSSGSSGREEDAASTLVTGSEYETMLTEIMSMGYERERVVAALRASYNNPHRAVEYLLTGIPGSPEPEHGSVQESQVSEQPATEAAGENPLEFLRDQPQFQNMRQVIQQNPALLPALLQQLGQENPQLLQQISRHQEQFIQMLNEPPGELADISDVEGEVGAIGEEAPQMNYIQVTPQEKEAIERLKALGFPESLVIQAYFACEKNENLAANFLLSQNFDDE

B1: Ube3A (recombinant) (protein)
chain: SGEPQSDDIEASRMKRAAAKHLIERYYHQLTEGCGNEACTNEFCASCPTFLRMDNNAAAIKALELYKINAKLCDPHPSKKGASSAYLENSKGAPNNSCSEIKMNKKGARIDFKDVTYLTEEKVYEILELCREREDYSPLIRVIGRVFSSAEALVQSFRKVKQHTKEELKSLQAKDEDKDEDEKEKAACSAAAMEEDSEASSSRIGDSSQGDNNLQKLGPDDVSVDIDAIRRVYTRLLSNEKIETAFLNALVYLSPNVECDLTYHNVYSRDPNYLNLFIIVMENRNLHSPEYLEMALPLFCKAMSKLPLAAQGKLIRLWSKYNADQIRRMMETFQQLITYKVISNEFNSRNLVNDDDAIVAASKCLKMVYYANVVGGEVDTNHNEEDDEEPIPESSELTLQELLGEERRNKKGPRVDPLETELGVKTLDCRKPLIPFEEFINEPLNEVLEMDKDYTFFKVETENKFSFMTCPFILNAVTKNLGLYYDNRIRMYSERRITVLYSLVQGQQLNPYLRLKVRRDHIIDDALVRLEMIAMENPADLKKQLYVEFEGEQGVDEGGVSKEFFQLVVEEIFNPDIGMFTYDESTKLFWFNPSSFETEGQFTLIGIVLGLAIYNNCILDVHFPMVVYRKLMGKKGTFRDLGDSHPVLYQSLKDLLEYEGNVEDDMMITFQISQTDLFGNPMMYDLKENGDKIPITNENRKEFVNLYSDYILNKSVEKQFKAFRRGFHMVTNESPLKYLFRPEEIELLICGSRNLDFQALEETTEYDGGYTRDSVLIREFWEIVHSFTDEQKRLFLQFTTGTDRAPVGGLGKLKMIIAKNGPDTERLPTSHTCFNVLLLPEYSSKEKLKERLLKAITYAKGFGML
- in vitro ubiquitination assay using purified recombinant proteins [1]: Ube3A ubiquitinated Arc in vitro
- ubiquitination of HHR23A by Ube3A [2]: this domain is required for Ube3A to ubiquitinate HHR23A
